T1: Ac-DAEFRHDSGYEVHHQKGGGGC-NH2, immobilized peptide fragment corresponding to the 1-16 region of the amyloid-β … (N-terminal acetyl (Ac); C-terminal amide (NH2); C-terminal cysteine bound to the CM5 chip through a thiol bond)
T1 construct: Synthetic 21-mer; Aβ 1-16 plus GGGG linker and Cys for immobilisation; also called ligand; target ligand
T1 peptide: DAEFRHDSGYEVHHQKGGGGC

B1: Ac-HAEE-NH2 (peptide)
peptide: Ac-HAEE-NH2
notes: also called ID; NO; 19
B2: Ac-DDAK-NH2 (peptide)
peptide: Ac-DDAK-NH2
notes: also called ID; NO
B3: Ac-DEAR-NH2 (peptide)
peptide: Ac-DEAR-NH2
notes: also called ID; NO; 12
B4: Ac-KADE-NH2 (peptide)
peptide: Ac-KADE-NH2
notes: also called ID; NO; 15
B5: Ac-HADD-NH2 (peptide)
peptide: Ac-HADD-NH2
notes: also called ID; NO
B6: Ac-KAED-NH2 (peptide)
peptide: Ac-KAED-NH2
notes: also called ID; NO
B7: Ac-RAEE-NH2 (peptide)
peptide: Ac-RAEE-NH2
notes: also called ID; NO; 23
B8: Ac-RADD-NH2 (peptide)
peptide: Ac-RADD-NH2
notes: also called ID; NO
B9: Ac-EEKNIAHAEE-NH2 (peptide)
peptide: Ac-EEKNIAHAEE-NH2
notes: also called ID; NO; 55
B10: Ac-HSLAHAEESD-NH2 (peptide)
peptide: Ac-HSLAHAEESD-NH2
notes: also called ID; NO; 49
B11: Ac-DERQISHAEE-NH2 (peptide)
peptide: Ac-DERQISHAEE-NH2
notes: also called ID; NO; 58
B12: Ac-KNIAHAEEAD-NH2 (peptide)
peptide: Ac-KNIAHAEEAD-NH2
notes: also called ID; NO; 50
B13: Ac-KQLGHAEEGE-NH2 (peptide)
peptide: Ac-KQLGHAEEGE-NH2
notes: also called ID; NO; 52
B14: Ac-HAEESE-NH2 (peptide)
peptide: Ac-HAEESE-NH2
notes: also called ID; NO; 41
B15: Ac-HAEEGE-NH2 (peptide)
peptide: Ac-HAEEGE-NH2
notes: also called ID; NO; 42
B16: Ac-HAEESD-NH2 (peptide)
peptide: Ac-HAEESD-NH2
notes: also called ID; NO; 39
B17: Ac-HAEEAD-NH2 (peptide)
peptide: Ac-HAEEAD-NH2
notes: also called ID; NO; 40
B18: Ac-HAEEQE-NH2 (peptide)
peptide: Ac-HAEEQE-NH2
notes: also called ID; NO; 43
B19: Ac-DDHSLAHAEE-NH2 (peptide)
peptide: Ac-DDHSLAHAEE-NH2
notes: also called ID; NO; 54
B20: Ac-RNFSHAEESE-NH2 (peptide)
peptide: Ac-RNFSHAEESE-NH2
notes: also called ID; NO; 51
B21: Ac-EERNFSHAEE-NH2 (peptide)
peptide: Ac-EERNFSHAEE-NH2
notes: also called ID; NO; 56
B22: Ac-LAHAEE-NH2 (peptide)
peptide: Ac-LAHAEE-NH2
notes: also called ID; NO; 44
B23: Ac-ISHAEE-NH2 (peptide)
peptide: Ac-ISHAEE-NH2
notes: also called ID; NO; 48
B24: Ac-FSHAEE-NH2 (peptide)
peptide: Ac-FSHAEE-NH2
notes: also called ID; NO; 46
B25: Ac-LGHAEE-NH2 (peptide)
peptide: Ac-LGHAEE-NH2
notes: also called ID; NO; 47
B26: Ac-IAHAEE-NH2 (peptide)
peptide: Ac-IAHAEE-NH2
notes: also called ID; NO; 45
B27: Ac-RQISHAEEQE-NH2 (peptide)
peptide: Ac-RQISHAEEQE-NH2
notes: also called ID; NO; 53
B28: Ac-AADD-NH2 (peptide)
peptide: Ac-AADD-NH2
notes: also called ID; NO; 32
B29: Ac-RADA-NH2 (peptide)
peptide: Ac-RADA-NH2
notes: also called ID; NO; 36
B30: Ac-AADE-NH2 (peptide)
peptide: Ac-AADE-NH2
notes: also called ID; NO; 35
B31: Ac-RAAE-NH2 (peptide)
peptide: Ac-RAAE-NH2
notes: also called ID; NO; 37
B32: Ac-KAAE-NH2 (peptide)
peptide: Ac-KAAE-NH2
notes: also called ID; NO; 38
B33: Ac-HAAE-NH2 (peptide)
peptide: Ac-HAAE-NH2
notes: also called ID; NO; 31
B34: Ac-HAAD-NH2 (peptide)
peptide: Ac-HAAD-NH2
notes: also called ID; NO; 33
B35: Ac-HAEA-NH2 (peptide)
peptide: Ac-HAEA-NH2
notes: also called ID; NO; 30
B36: Ac-HADA-NH2 (peptide)
peptide: Ac-HADA-NH2
notes: also called ID; NO; 34
B37: Ac-AAEE-NH2 (peptide)
peptide: Ac-AAEE-NH2
notes: also called ID; NO; 29
B38: Ac-DEKQLGHAEE-NH2 (peptide)
peptide: Ac-DEKQLGHAEE-NH2
notes: also called ID; NO; 57

Target: T1, Ac-DAEFRHDSGYEVHHQKGGGGC-NH2, …
Test: SPR, BIACORE 3000, ligand immobilised on CM5 chip by thiol bond, peptide as analyte 0-25 µM, response at equilibrium; Example 1, BIACORE 3000, response at equilibrium
Method: The SPR spectroscopy experiments were conducted with the BIACORE 3000 apparatus. The reagents for immobilizing the amyloid-β peptide fragment (EDC, NHS, PDEA and cysteine) were bought from GE Healthcare (USA). The buffer used for immobilizing the peptide ligand by formation of thiol bonds was 10 mM sodium acetate at pH 4.5. The regeneration buffer was an HBS buffer containing a medium with 10 mM HEPES and 3 mM EDTA, 0.005% of surfactant P20 and 150 mM NaCl at pH 7.4. […] was a HBS buffer at pH 7.4 and a HEPES buffer at pH 6.8, 50 mM, with 100 μM of Zn(II) ions for the reactive tetrapeptide Ac-HAEE-NH₂. All the buffers were filtered before use.
The peptide fragment of the ligand was: Ac-[…]-NH₂, corresponding to the sequence SEQ. ID. NO.26. This peptide with 21 amino acids contains the 16 amino acids of the N-terminal end of the binding domain of the amyloid-β, i.e. […] (SEQ. ID. NO.25), followed by 4 glycine amino acids and a cysteine C-Terminal end. […]
The reagent Ac-HAEE-NH₂ was prepared by dilution with 7 concentrations, i.e. 0, 2, 5, 10, 15, 20 and 25 μM, and injected in a multichannel mode (20 μL QUICKINJECT, 5 μL/min). […] Next, the dissociation constant Kd was calculated in a known way from curves established for the response at equilibrium (Req) versus the concentration (M) in the BIA evaluation 4.1 program.

Binder | Kd [µM]
B1 | 0.022

Target: T1, Ac-DAEFRHDSGYEVHHQKGGGGC-NH2, …
Test: SPR, BIACORE T100, ligand immobilised on CM5 chip, peptide as analyte 50-2,000 µM, no zinc, kinetic fit

Binder | Kd [µM] | koff [s⁻¹]
B2 | 1370 | 0.0062
B3 | 1980 | 0.00709
B1 | 90 | 3.5e-05
B4 | 4500 | 0.0096
B5 | 3250 | 0.0104
B6 | 3300 | 0.019
B7 | 7700 | 0.0112
B8 | 13 | 0.00024

Target: T1, Ac-DAEFRHDSGYEVHHQKGGGGC-NH2, …
Test: SPR, BIACORE 3000, procedure of Example 1

Binder | binding result
B9 | no binding (tested: Kd from 10^-3 to 10^-4 M)
B10 | no binding (tested: Kd from 10^-3 to 10^-4 M)
B11 | no binding (tested: Kd from 10^-3 to 10^-4 M)
B12 | no binding (tested: Kd from 10^-3 to 10^-4 M)
B13 | no binding (tested: Kd from 10^-3 to 10^-4 M)
B14 | no binding (tested: Kd from 10^-3 to 10^-4 M)
B15 | no binding (tested: Kd from 10^-3 to 10^-4 M)
B16 | no binding (tested: Kd from 10^-3 to 10^-4 M)
B17 | no binding (tested: Kd from 10^-3 to 10^-4 M)
B18 | no binding (tested: Kd from 10^-3 to 10^-4 M)
B19 | no binding (tested: Kd from 10^-3 to 10^-4 M)
B20 | no binding (tested: Kd from 10^-3 to 10^-4 M)
B21 | no binding (tested: Kd from 10^-3 to 10^-4 M)
B22 | no binding (tested: Kd from 10^-3 to 10^-4 M)
B23 | no binding (tested: Kd from 10^-3 to 10^-4 M)
B24 | no binding (tested: Kd from 10^-3 to 10^-4 M)
B25 | no binding (tested: Kd from 10^-3 to 10^-4 M)
B26 | no binding (tested: Kd from 10^-3 to 10^-4 M)
B27 | no binding (tested: Kd from 10^-3 to 10^-4 M)
B28 | no binding (tested: Kd from 10^-3 to 10^-4 M)
B29 | no binding (tested: Kd from 10^-3 to 10^-4 M)
B30 | no binding (tested: Kd from 10^-3 to 10^-4 M)
B31 | no binding (tested: Kd from 10^-3 to 10^-4 M)
B32 | no binding (tested: Kd from 10^-3 to 10^-4 M)
B33 | no binding (tested: Kd from 10^-3 to 10^-4 M)
B34 | no binding (tested: Kd from 10^-3 to 10^-4 M)
B35 | no binding (tested: Kd from 10^-3 to 10^-4 M)
B36 | no binding (tested: Kd from 10^-3 to 10^-4 M)
B37 | no binding (tested: Kd from 10^-3 to 10^-4 M)
B38 | no binding (tested: Kd from 10^-3 to 10^-4 M)

Target: complete β peptide 1-40, marked by a fluorescent marker (UniProt P05067 672-711, fluorescent marker, kind and position not stated)
Sequence (P05067 672-711 limits assumed): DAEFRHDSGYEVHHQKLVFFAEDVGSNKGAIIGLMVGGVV
Test: cell-based or functional assay

Binder | inhibition of the aggregation of the Aβ peptide (fluorescence of marked Aβ 1-40 bound to the wells, SYNTHALOID SCREENING PLATE kit), IC50 [µM]
B1 | 20
B8 | 20

— US20130252901A1 (KIMONELLA VENTURES, published 2013)
